# Numbering of substitutions follows the chain as printed. In names and notes the source's numbering stands.
# B1: 3B04_var8 (antibody, human IgG4, V domains shown)
# VH: QVQLVQSGAEVKKPGASVKVSCKASGYTFTDYEMHWVRQAPGQGLEWMGEIDPETGDTAYAQKFQGRVTLTADKSTSTAYMELSSLRSEDTAVYYCSRETDYFFDYWGQGTLVTVSS
# VL: DIQMTQSPSSLSASVGDRVTITCGASENIYGALNWYQRKQGKAPKLLIYGATNLADGVPSRFSGSGSGRDYTLTISSLQPEDFATYYCQNVLTTPWTFGQGTKLEIKR
# notes: human IgG4 (S241P, L248E, Kabat); also called 3B04 VL2VH4 (var8)
# B2: 3D12_var13 (antibody, human IgG4, V domains shown)
# VH: B1 VH with G26D, Y32S, M34I, M48I, D57G, A61N, Q65K, V68A
# VL: B1 VL with G24R, R38Q, Q40P, D56E, F83V, T93S
# notes: human IgG4 (S241P, L248E, Kabat); also called 3D12 VL4VH1 (var13)
# B3: 3B04_var1 (antibody, human IgG4, V domains shown)
# VH: B1 VH with M48I, A61S, Q65K, V68A, L83F
# VL: B1 VL with K45Q, P59S
# notes: human IgG4 (S241P, L248E, Kabat); also called 3B04 VL1VH1 (var1)
# B4: 3D12_var12 (antibody, human IgG4, V domains shown)
# VH: B1 VH with Y32S, D57G
# VL: B1 VL with R38Q, Q40P, F83V, T93S
# notes: human IgG4 (S241P, L248E, Kabat); also called 3D12 VL3VH4 (var12)
# B5: 3B04_var12 (antibody, human IgG4, V domains shown)
# VH: B1 VH
# VL: B1 VL with R38Q, Q40P
# notes: human IgG4 (S241P, L248E, Kabat); also called 3B04 VL3VH4 (var12)
# B6: 3B04_var2 (antibody, human IgG4, V domains shown)
# VH: B1 VH with M48I, A61S, L83F
# VL: B1 VL with K45Q, P59S
# notes: human IgG4 (S241P, L248E, Kabat); also called 3B04 VL1VH2 (var2)
# B7: 3D12_var6 (antibody, human IgG4, V domains shown)
# VH: B1 VH with G26D, Y32S, M34I, M48I, D57G, A61N
# VL: B1 VL with F83V, T93S
# notes: human IgG4 (S241P, L248E, Kabat); also called 3D12 VL2VH2 (var6)
# B8: 3B04_var5 (antibody, human IgG4, V domains shown)
# VH: B1 VH with M48I, A61S, Q65K, V68A, L83F
# VL: B1 VL
# notes: human IgG4 (S241P, L248E, Kabat); also called 3B04 VL2VH1 (var5)
# B9: 3D12_var8 (antibody, human IgG4, V domains shown)
# VH: B1 VH with Y32S, D57G
# VL: B1 VL with F83V, T93S
# notes: human IgG4 (S241P, L248E, Kabat); also called 3D12 VL2VH4 (var8)
# B10: 3B04_var6 (antibody, human IgG4, V domains shown)
# VH: B1 VH with M48I, A61S, L83F
# VL: B1 VL
# notes: human IgG4 (S241P, L248E, Kabat); also called 3B04 VL2VH2 (var6)
# B11: 3B04_var16 (antibody, human IgG4, V domains shown)
# VH: B1 VH
# VL: B1 VL with G24R, R38Q, Q40P, D56E
# notes: human IgG4 (S241P, L248E, Kabat); also called 3B04 VL4VH4 (var16); 3B04 variant 16
# B12: 3B04_var4 (antibody, human IgG4, V domains shown)
# VH: B1 VH
# VL: B1 VL with K45Q, P59S
# notes: human IgG4 (S241P, L248E, Kabat); also called 3B04 VL1VH4 (var4)
# B13: 3D12_var3 (antibody, human IgG4, V domains shown)
# VH: B1 VH with G26D, Y32S, M34I, D57G
# VL: B1 VL with K45Q, P59S, F83V, T93S
# notes: human IgG4 (S241P, L248E, Kabat); also called 3D12 VL1VH3 (var3)
# B14: 3D12_var14 (antibody, human IgG4, V domains shown)
# VH: B1 VH with G26D, Y32S, M34I, M48I, D57G, A61N
# VL: B1 VL with G24R, R38Q, Q40P, D56E, F83V, T93S
# notes: human IgG4 (S241P, L248E, Kabat); also called 3D12 VL4VH2 (var14)
# B15: 3D12_var15 (antibody, human IgG4, V domains shown)
# VH: B1 VH with G26D, Y32S, M34I, D57G
# VL: B1 VL with G24R, R38Q, Q40P, D56E, F83V, T93S
# notes: human IgG4 (S241P, L248E, Kabat); also called 3D12 VL4VH3 (var15)
# B16: 3D12_var4 (antibody, human IgG4, V domains shown)
# VH: B1 VH with Y32S, D57G
# VL: B1 VL with K45Q, P59S, F83V, T93S
# notes: human IgG4 (S241P, L248E, Kabat); also called 3D12 VL1VH4 (var4)
# B17: 3D12_var1 (antibody, human IgG4, V domains shown)
# VH: B1 VH with G26D, Y32S, M34I, M48I, D57G, A61N, Q65K, V68A
# VL: B1 VL with K45Q, P59S, F83V, T93S
# notes: human IgG4 (S241P, L248E, Kabat); also called 3D12 VL1VH1 (var1)
# B18: 3B04_var13 (antibody, human IgG4, V domains shown)
# VH: B1 VH with M48I, A61S, Q65K, V68A, L83F
# VL: B1 VL with G24R, R38Q, Q40P, D56E
# notes: human IgG4 (S241P, L248E, Kabat); also called 3B04 VL4VH1 (var13)
# B19: 3B04_var11 (antibody, human IgG4, V domains shown)
# VH: B1 VH with L83F
# VL: B1 VL with R38Q, Q40P
# notes: human IgG4 (S241P, L248E, Kabat); also called 3B04 VL3VH3 (var11)
# B20: 3D12_var2 (antibody, human IgG4, V domains shown)
# VH: B1 VH with G26D, Y32S, M34I, M48I, D57G, A61N
# VL: B1 VL with K45Q, P59S, F83V, T93S
# notes: human IgG4 (S241P, L248E, Kabat); also called 3D12 VL1VH2 (var2)
# B21: 3B04_var7 (antibody, human IgG4, V domains shown)
# VH: B1 VH with L83F
# VL: B1 VL
# notes: human IgG4 (S241P, L248E, Kabat); also called 3B04 VL2VH3 (var7)
# B22: 3D12_var16 (antibody, human IgG4, V domains shown)
# VH: B1 VH with Y32S, D57G
# VL: B1 VL with G24R, R38Q, Q40P, D56E, F83V, T93S
# notes: human IgG4 (S241P, L248E, Kabat); also called 3D12 VL4VH4 (var16)
# B23: 3B04_var15 (antibody, human IgG4, V domains shown)
# VH: B1 VH with L83F
# VL: B1 VL with G24R, R38Q, Q40P, D56E
# notes: human IgG4 (S241P, L248E, Kabat); also called 3B04 VL4VH3 (var15)
# B24: 3B04_var3 (antibody, human IgG4, V domains shown)
# VH: B1 VH with L83F
# VL: B1 VL with K45Q, P59S
# notes: human IgG4 (S241P, L248E, Kabat); also called 3B04 VL1VH3 (var3)
# B25: 3D12_var5 (antibody, human IgG4, V domains shown)
# VH: B1 VH with G26D, Y32S, M34I, M48I, D57G, A61N, Q65K, V68A
# VL: B1 VL with F83V, T93S
# notes: human IgG4 (S241P, L248E, Kabat); also called 3D12 VL2VH1 (var5)
# B26: 3B04_var9 (antibody, human IgG4, V domains shown)
# VH: B1 VH with M48I, A61S, Q65K, V68A, L83F
# VL: B1 VL with R38Q, Q40P
# notes: human IgG4 (S241P, L248E, Kabat); also called 3B04 VL3VH1 (var9)
# B27: 3D12_var9 (antibody, human IgG4, V domains shown)
# VH: B1 VH with G26D, Y32S, M34I, M48I, D57G, A61N, Q65K, V68A
# VL: B1 VL with R38Q, Q40P, F83V, T93S
# notes: human IgG4 (S241P, L248E, Kabat); also called 3D12 VL3VH1 (var9)
# B28: 3B04_var14 (antibody, human IgG4, V domains shown)
# VH: B1 VH with M48I, A61S, L83F
# VL: B1 VL with G24R, R38Q, Q40P, D56E
# notes: human IgG4 (S241P, L248E, Kabat); also called 3B04 VL4VH2 (var14)
# B29: 3D12_var7 (antibody, human IgG4, V domains shown)
# VH: B1 VH with G26D, Y32S, M34I, D57G
# VL: B1 VL with F83V, T93S
# notes: human IgG4 (S241P, L248E, Kabat); also called 3D12 VL2VH3 (var7)
# B30: 3B04_var10 (antibody, human IgG4, V domains shown)
# VH: B1 VH with M48I, A61S, L83F
# VL: B1 VL with R38Q, Q40P
# notes: human IgG4 (S241P, L248E, Kabat); also called 3B04 VL3VH2 (var10)
# B31: 3D12_var11 (antibody, human IgG4, V domains shown)
# VH: B1 VH with G26D, Y32S, M34I, D57G
# VL: B1 VL with R38Q, Q40P, F83V, T93S
# notes: human IgG4 (S241P, L248E, Kabat); also called 3D12 VL3VH3 (var11)
# B32: 3D12_var10 (antibody, human IgG4, V domains shown)
# VH: B1 VH with G26D, Y32S, M34I, M48I, D57G, A61N
# VL: B1 VL with R38Q, Q40P, F83V, T93S
# notes: human IgG4 (S241P, L248E, Kabat); also called 3D12 VL3VH2 (var10)
# B33: LTβR-Fc (Fc fusion, UniProt P36941 28-227, looked up)
# chain: SQPQAVPPYASENQTCRDQEKEYYEPQHRICCSRCPPGTYVSAKCSRIRDTVCATCAENSYNEHWNYLTICQLCRPCDPVMGLEEIAPCTSKRKTQCRCQPGMFCAAWALECTHCELLSDCPPGTEAELKDEVGKGNNHCVPCKAGHFQNTSSPSARCQPHTRCENQGLVEAAPGTAQSDTTCKNPLEPLPPEMSGTMLM
# modifications: biotinylated (EZ-Link NHS-LC-Biotin) in the competition assays
# notes: also called LTBR-Fc; biotin-LTβR-Fc; not shown: Fc part of the bought fusion protein
# B34: HVEM-Fc (Fc fusion, UniProt Q92956 37-202, looked up)
# chain: PALPSCKEDEYPVGSECCPKCSPGYRVKEACGELTGTVCEPCPPGTYIAHLNGLSKCLQCQMCDPAMGLRASRNCSRTENAVCGCSPGHFCIVQDGDHCAACRAYATSSPGQRVQKGGTESQDTLCQNCPPGTFSPNGTLEECQHQTKCSWLVTKAGAGTSSSHWV
# modifications: biotinylated (EZ-Link NHS-LC-Biotin) in the competition assays
# notes: also called biotin-HVEM-Fc; biotinylated HVEM-Fc; not shown: Fc part of the bought fusion protein
# Molecular target: membrane LIGHT without residues 81-84 (EL4-NC-LIGHT cells) (human, UniProt O43557 1-240)
# Assay: cell-based or functional assay
# Sequence of membrane LIGHT without residues 81-84 (EL4-NC-LIGHT cells) (O43557 other isoform, or with tags, fused parts or gaps): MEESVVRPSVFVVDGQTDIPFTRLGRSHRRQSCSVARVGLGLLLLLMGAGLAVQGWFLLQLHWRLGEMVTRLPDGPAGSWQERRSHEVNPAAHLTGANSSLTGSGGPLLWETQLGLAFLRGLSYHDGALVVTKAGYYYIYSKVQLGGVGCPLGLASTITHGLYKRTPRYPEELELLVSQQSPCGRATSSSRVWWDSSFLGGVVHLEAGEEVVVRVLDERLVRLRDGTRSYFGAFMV
row,"IC50, inhibition of IL-8 secretion from HT-29 cells (EL4-NC-LIGHT cells)",Binder
1,50 pM,B1
2,450 pM,B2
3,50 pM,B3
4,580 pM,B4
5,70 pM,B5
6,60 pM,B6
7,470 pM,B7
8,40 pM,B8
9,670 pM,B9
10,80 pM,B10
11,100 pM,B11
12,40 pM,B12
13,530 pM,B13
14,450 pM,B14
15,380 pM,B15
16,660 pM,B16

row,"IC50, inhibition of IL-8 secretion from HT-29 cells (EL4-NC-LIGHT cells)",Binder
1,330 pM,B17
2,40 pM,B18
3,60 pM,B19
4,740 pM,B20
5,50 pM,B21
6,520 pM,B22
7,100 pM,B23
8,40 pM,B24
9,590 pM,B25
10,90 pM,B26
11,710 pM,B27
12,50 pM,B28
13,540 pM,B29
14,40 pM,B30
15,550 pM,B31
16,440 pM,B32

# Molecular target: T1, human LIGHT (TNFSF14), full length, membrane-bound (214E allele) (human, UniProt O43557 1-240)
# T1 construct: also called membrane LIGHT; human membrane LIGHT
# Assay: flow cytometry, EL4-LIGHT cells
# T1 sequence (O43557 whole entry K214E): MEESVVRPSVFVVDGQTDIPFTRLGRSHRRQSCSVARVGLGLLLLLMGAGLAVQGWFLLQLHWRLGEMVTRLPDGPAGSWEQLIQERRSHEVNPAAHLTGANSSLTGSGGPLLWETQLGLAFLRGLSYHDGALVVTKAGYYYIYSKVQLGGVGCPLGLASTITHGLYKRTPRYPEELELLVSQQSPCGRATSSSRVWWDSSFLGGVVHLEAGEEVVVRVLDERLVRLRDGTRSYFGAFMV
row,EC50,Binder
1,280 pM,B1
2,240 pM,B2
3,240 pM,B3
4,330 pM,B4
5,240 pM,B5
6,380 pM,B6
7,310 pM,B7
8,270 pM,B8
9,310 pM,B9
10,270 pM,B10
11,240 pM,B11
12,260 pM,B12
13,330 pM,B13
14,230 pM,B14
15,220 pM,B15
16,320 pM,B16

row,EC50,Binder
1,220 pM,B17
2,320 pM,B18
3,370 pM,B19
4,470 pM,B20
5,230 pM,B21
6,260 pM,B22
7,390 pM,B23
8,320 pM,B24
9,330 pM,B25
10,260 pM,B26
11,360 pM,B27
12,300 pM,B28
13,380 pM,B29
14,490 pM,B30
15,340 pM,B31
16,390 pM,B32

# Molecular target: T1, human LIGHT (TNFSF14), full length, …
# Assay: flow cytometry, HEK293FF human LIGHT cells (value given in the method)
row,EC50,Binder
1,15000 pM,B33
2,45000 pM,B34

# Reference: patent US20230035798A1 (CAPELLA BIOSCIENCE, published 2023)
